The values that follow are results of earlier work, collected in publication PMC4388261.

This data set concerns the target Glu35 (UniProt position 53, CAAKFESNFNT). The conditions noted are these: not stated (wild-type HEWL; the literature range pools several studies).

As for “Hen egg-white lysozyme (HEWL, lysozyme C) (Gallus gallus)”, the pKa was 6.0–6.8.
